{"source": "paper PMC3526301"}
{"target": "T1, human alpha-thrombin (Homo sapiens, UniProt P00734;P00734 315-363;364-622)", "assay": "bead-based fluorescence binding; apparent Kd; 50 mM Tris, 100 mM NaCl, 1 mM MgCl2, 5 mM KCl, 1 mM CaCl2, 0.01% Tween 20, pH 7.5 (selection buffer), 1 h room temperature, wa", "units": {"Kd": "nM"}}
{"binder": "TBV-08 (clone 8) (structured_DNA) DNA: AGCAGCACAGAGGTCAGATGGGTTGGTGTGGTTGGTGAGACCTTGCATGCGACTTGGTGAGCACGTGAGAAGTCCGTGGTAGGGCAGGTTGGGGTGACTCCTATGCGTGCTACCGTGAA", "Kd": 0.0081}
{"target": "T1, human alpha-thrombin", "assay": "bead-based fluorescence binding; 50 pM aptamer; 50 mM Tris, 100 mM NaCl, 1 mM MgCl2, 5 mM KCl, 1 mM CaCl2, 0.01% Tween 20, pH 7.5 (selection buffer), 1 h room temperature, wa"}
{"binder": "clone 2 (structured_DNA) DNA: AGCAGCACAGAGGTCAGATGGGTTGGTGTGGTTGGCTGATACCGGAAGGGGTGTGTGTAGCGCGGTTGAGAGTCCGTGGTAGGGCAGGTTGGGGTGACTCCTATGCGTGCTACCGTGAA", "binding result": "binds"}
{"binder": "clone 10 (structured_DNA) DNA: AGCAGCACAGAGGTCAGATGGGTTGGTGTGGTTGGTTTGCCGATGTGTGGACAGCATGTGGGGTAGAGCGAGTCCGTGGTAGGGCAGGTTGGGGTGACTCCTATGCGTGCTACCGTGAA", "binding result": "binds"}
{"binder": "clone 5 (structured_DNA) DNA: AGCAGCACAGAGGTCAGATGGGTTGGTGTGGTTGGCATTTTGACCGAATGACGTTAGCAAAATATGTTAGAGTCCGTGGTAGGGCAGGTTGGGGTGACTCCTATGCGTGCTACCGTGAA", "binding result": "binds"}
{"binder": "clone 6 (structured_DNA) DNA: AGCAGCACAGAGGTCAGATGGGTTGGTGTGGTTGGCGAGGACGCTGTGTGCGCTTCGAGGGCCTAGAAGGAGTCCGTGGTAGGGCAGGTTGGGGTGACTCCTATGCGTGCTACCGTGAA", "binding result": "binds"}
{"binder": "clone 7 (structured_DNA) DNA: AGCAGCACAGAGGTCAGATGGGTTGGTGTGGTTGGCTCTGATAACCCGGGGCTGTGGTGCGCCAGGTAGGAGTCCGTGGTAGGGCAGGTTGGGGTGACTCCTATGCGTGCTACCGTGAA", "binding result": "binds"}
{"binder": "clone 4 (structured_DNA) DNA: AGCAGCACAGAGGTCAGATGGGTTGGTGTGGTTGGCTGGTCTGGGGGCGTTTACTGGGCGCGCATTTTAAAGTCCGTGGTAGGGCAGGTTGGGGTGACTCCTATGCGTGCTACCGTGAA", "binding result": "binds"}
{"binder": "clone 1 (structured_DNA) DNA: AGCAGCACAGAGGTCAGATGGGTTGGTGTGGTTGGAGCGGACTTTACCTGTGTCAGCTGCGGGGGCCGCAAGTCCGTGGTAGGGCAGGTTGGGGTGACTCCTATGCGTGCTACCGTGAA", "binding result": "binds"}
{"binder": "clone 3 (structured_DNA) DNA: AGCAGCACAGAGGTCAGATGGGTTGGTGTGGTTGGTGAGTCGACTGTGTGCCTCAAGTAGAACGTAGGTGAGTCCGTGGTAGGGCAGGTTGGGGTGACTCCTATGCGTGCTACCGTGAA", "binding result": "binds"}
{"binder": "clone 9 (structured_DNA) DNA: AGCAGCACAGAGGTCAGATGGGTTGGTGTGGTTGGCATTCGTAACTATGGGGTTCCTGTATTGGTATAGGAGTCCGTGGTAGGGCAGGTTGGGGTGACTCCTATGCGTGCTACCGTGAA", "binding result": "binds"}
{"target": "T1, human alpha-thrombin", "assay": "bead-based fluorescence binding; apparent Kd; Figure S7 legend gives 430 pM; 50 mM Tris, 100 mM NaCl, 1 mM MgCl2, 5 mM KCl, 1 mM CaCl2, 0.01% Tween 20, pH 7.5 (selection buffer), 1 h room temperature, wa", "units": {"Kd": "nM"}}
{"binder": "TBV-08 without primer sites (structured_DNA) DNA: GGTTGGTGTGGTTGGTGAGACCTTGCATGCGACTTGGTGAGCACGTGAGAAGTCCGTGGTAGGGCAGGTTGGGGTGACT", "Kd": 0.44}
